From article PMC3326525 (Nature structural & molecular biology, 2011)
Read-outs that look alike come from different tables or passages of the source. Blank lines part the entries; values can stand above or below the binder they belong to.

Tests used:
MBP-RNF4 (wild-type) = target: T1, MBP-RNF4 (wild-type) (Rattus norvegicus, UniProt O88846 1-194); test: pull-down
T1 sequence: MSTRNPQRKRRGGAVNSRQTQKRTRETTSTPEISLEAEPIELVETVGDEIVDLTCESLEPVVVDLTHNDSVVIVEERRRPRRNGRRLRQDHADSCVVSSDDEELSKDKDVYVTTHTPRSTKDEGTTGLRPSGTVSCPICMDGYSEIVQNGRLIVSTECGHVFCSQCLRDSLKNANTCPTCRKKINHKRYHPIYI

ECFP-RNF4 (wild-type) [1] = target: T2, ECFP-RNF4 (wild-type) (Rattus norvegicus, UniProt O88846 1-194); test: FRET or BRET
T2 sequence: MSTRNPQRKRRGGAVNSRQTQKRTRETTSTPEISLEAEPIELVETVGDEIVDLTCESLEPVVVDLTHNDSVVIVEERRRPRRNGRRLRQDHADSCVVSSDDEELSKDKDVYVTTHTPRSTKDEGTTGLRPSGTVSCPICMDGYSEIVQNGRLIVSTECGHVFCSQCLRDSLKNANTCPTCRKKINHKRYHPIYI

[2] = target: the molecule itself
ECFP-RNF4 (wild-type) [3] = target: T2, ECFP-RNF4 (wild-type); test: FRET or BRET; remark: listed apart in the source

B1: UbcH5a (N77A C85S)~Ub oxyester (complex)
chain 1: not shown
chain 2: […]
binding result (MBP-RNF4 (wild-type)): binds

B3: RNF4 L152A (natural protein)
chain: MSTRNPQRKRRGGAVNSRQTQKRTRETTSTPEISLEAEPIELVETVGDEIVDLTCESLEPVVVDLTHNDSVVIVEERRRPRRNGRRLRQDHADSCVVSSDDEELSKDKDVYVTTHTPRSTKDEGTTGLRPSGTVSCPICMDGYSEIVQNGRAIVSTECGHVFCSQCLRDSLKNANTCPTCRKKINHKRYHPIYI
stoichiometry N [2]: 2

B4: YFP-RING domain of RNF4 (wild-type) (domain or fragment)
chain: VSCPICMDGYSEIVQNGRLIVSTECGHVFCSQCLRDSLKNANTCPTCRKKINHKRYHPIYI
binding result (ECFP-RNF4 (wild-type) [1]): binds

The next lines start with the values.

binding result (ECFP-RNF4 (wild-type) [1]): binds
B2: RNF4 Y193H (natural protein)
chain: MSTRNPQRKRRGGAVNSRQTQKRTRETTSTPEISLEAEPIELVETVGDEIVDLTCESLEPVVVDLTHNDSVVIVEERRRPRRNGRRLRQDHADSCVVSSDDEELSKDKDVYVTTHTPRSTKDEGTTGLRPSGTVSCPICMDGYSEIVQNGRLIVSTECGHVFCSQCLRDSLKNANTCPTCRKKINHKRYHPIHI

binding result (ECFP-RNF4 (wild-type) [3]): binds
B5: YFP-RING M140A R181A (domain or fragment)
chain: VSCPICADGYSEIVQNGRLIVSTECGHVFCSQCLRDSLKNANTCPTCAKKINHKRYHPIYI
